The series has as its system ATP. Briefly: switch fluorescence ratio, 500 uM ATP over buffer (Cy3 cluster intensity, sum of 5 cycles each) (fold (ratio)); higher = stronger signal-on switching upon ATP binding; sequences stand for … in TCGTCGGCAGCGTCAGATGTGTATAAGAGACAGTTTTTTTTTTTTTTTTTTTTTTTTT…TC. The following applies: aptamer strand: ATP DNA aptamer (quencher-CACCTGGGGGAGTATTGCGGAGGAAGG + anchor), 100 nM annealed; ATP concentration: 500 uM. The method, boiled down:
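The quencher-labelled ATP aptamer, at 100 nM, was annealed to Cy3-labelled switching-strand clusters on a modified Illumina MiSeq flow-cell. The clusters were imaged in selection buffer, then after 15 min with 500 uM ATP at 22 °C, and this buffer/ATP cycle ran five times with NaOH stripping and re-annealing between runs. Per-cluster fluorescence ratios, summed target-cycle over summed buffer-cycle Cy3 intensity, were averaged per switch-domain sequence. Clusters outside 100-1000 RFU were excluded.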

± gives the standard deviation of the averaged measurements.
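Further: ATP exposure 15 min at 22 °C before imaging.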

Turning to TTTCTTGCTG, the switch fluorescence ratio was found to be 1.07 ± 0.047.

Regarding TTTCTTGGCG, the switch fluorescence ratio worked out at 1 ± 0.03. With TTTCTTTTTG the figure was 0.99 ± 0.034; with TTTGAAAATA, 0.962 ± 0.018. With TTTGAAAGCT the figure was 1.164 ± 0.0067. Under TTTGAAGTTT stands 1 ± 0.018; under TTTGAATAGG, 1.01 ± 0.016; under TTTGAATCGG, 0.97 ± 0.027. TTTGAATCTT: the switch fluorescence ratio amounted to 1 ± 0.02. In the case of TTTGAATGCT, the switch fluorescence ratio is 0.952 ± 0.046. As for TTTGAATGTA, the switch fluorescence ratio came to 1.011 ± 0.0078. For the sequence TTTGAATTAT, the switch fluorescence ratio came to 0.975 ± 0.021. Under TTTGAATTTC stands 0.988 ± 0.021; under TTTGACAGCG, 1.02 ± 0.066. Consider TTTGACGACT, for which the switch fluorescence ratio turned out to be 1.01 ± 0.025. With TTTGACGGTG the figure was 1.01 ± 0.034; with TTTGACTATG, 0.999 ± 0.022; with TTTGAGGAGG, 0.9876 ± 0.0046. Under TTTGAGGGTA stands 1.03 ± 0.1. Under TTTGAGGTGT stands 1.03 ± 0.012.

On to TTTGAGTCCG, for which the switch fluorescence ratio was determined as 1.04 ± 0.065. Under TTTGAGTGAG stands 0.9892 ± 0.0098; under TTTGAGTGAT, 1.01 ± 0.057; under TTTGAGTGCG, 0.973 ± 0.025. Take TTTGATAAAT: the switch fluorescence ratio worked out at 1 ± 0.014. In the case of TTTGATAGTT, the switch fluorescence ratio amounted to 1.01 ± 0.018.

For the sequence TTTGATATAT, the switch fluorescence ratio came to 0.972 ± 0.012. With TTTGATATTA the figure was 0.994 ± 0.026; with TTTGATCAGA, 1 ± 0.025.

TTTGATCGTT: the switch fluorescence ratio was 1.01 ± 0.011.

In the case of TTTGATGGCT, the switch fluorescence ratio stood at 1.02 ± 0.039.

Consider TTTGATGTAA, for which the switch fluorescence ratio was found to be 1.01 ± 0.026.

For TTTGATGTAC, the switch fluorescence ratio was 1.05 ± 0.013. In the case of TTTGATGTTT, the switch fluorescence ratio amounted to 1 ± 0.031. With TTTGATTAGG the figure was 1.01 ± 0.04; with TTTGCAAACT, 0.994 ± 0.017; with TTTGCAACGA, 1.25 ± 0.31. On to TTTGCAATTA, for which the switch fluorescence ratio is 1.57 ± 0.5. As to TTTGCACGTT, the switch fluorescence ratio is 1.03 ± 0.037.

As for TTTGCAGGGT, the switch fluorescence ratio stood at 1.03 ± 0.025.

Turning to TTTGCATACT, the switch fluorescence ratio was 2.75 ± 2.4. With TTTGCATGCA, the switch fluorescence ratio worked out at 1.03 ± 0.02. Under TTTGCCAAAC stands 1.52 ± 0.55; under TTTGCCGATG, 0.985 ± 0.013; under TTTGCCGGAC, 1.04 ± 0.062. Under TTTGCCGGGG stands 1.02 ± 0.06; under TTTGCCTCAA, 1.01 ± 0.011. As to TTTGCCTTTG, the switch fluorescence ratio worked out at 0.9991 ± 0.0076. As to TTTGCGCCGT, the switch fluorescence ratio came to 1.02 ± 0.058. Under TTTGCGGACC stands 1.05 ± 0.025; under TTTGCGTTTC, 1.07 ± 0.039. With TTTGCTAAAT the figure was 1.02 ± 0.02. Under TTTGCTAGGT stands 1.02 ± 0.031; under TTTGCTGACG, 1.02 ± 0.055; under TTTGCTGTTG, 0.965 ± 0.037. As for TTTGCTGTTT, the switch fluorescence ratio worked out at 1.01 ± 0.013. Under TTTGCTTACG stands 1.1 ± 0.13. In the case of TTTGCTTTAA, the switch fluorescence ratio worked out at 1 ± 0.067. Under TTTGCTTTTG stands 0.988 ± 0.021. Under TTTGGACTAT stands 1.012 ± 0.0038; under TTTGGAGGAT, 0.978 ± 0.029. With TTTGGAGGGC the figure was 1.06 ± 0.065. For the sequence TTTGGATACA, the switch fluorescence ratio was determined as 0.9739 ± 0.0012. With TTTGGATCGT, the switch fluorescence ratio worked out at 0.981 ± 0.025. TTTGGATGGA: the switch fluorescence ratio stood at 1.02 ± 0.023. Under TTTGGATGGT stands 0.996 ± 0.02; under TTTGGCGCAC, 1.06 ± 0.015; under TTTGGCGCTG, 0.984 ± 0.019. Under TTTGGCGTGC stands 1 ± 0.045. Take TTTGGCTGGG: the switch fluorescence ratio was determined as 0.985 ± 0.02.

Consider TTTGGCTTAC, for which the switch fluorescence ratio is 1.55 ± 0.72. For the sequence TTTGGCTTGG, the switch fluorescence ratio stood at 0.992 ± 0.031. With TTTGGCTTTT the figure was 1.06 ± 0.18; with TTTGGGAAAA, 1.05 ± 0.038. As to TTTGGGACGT, the switch fluorescence ratio was found to be 0.978 ± 0.03. TTTGGGAGGG: the switch fluorescence ratio was 0.969 ± 0.02. Regarding TTTGGGATTA, the switch fluorescence ratio turned out to be 0.983 ± 0.041. On to TTTGGGCCCG, for which the switch fluorescence ratio is 0.9936 ± 0.0014.

(Values after the supplement of paper PMC10126150.)
